Test results from the nanobody polyreactivity screen of Harvey et al. (2022).

Assay: yeast display, Sf9 membrane polyspecificity reagent, FACS + sequencing; frameworks hold sequencing errors
In short: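 Synthetic nanobody libraries on Saccharomyces cerevisiae BJ5465 were galactose-induced for 36–48 hours, stained 1 hour at 4 °C with 10% biotinylated, detergent-solubilized Sf9 membrane reagent and enriched on streptavidin microbeads. FACS then separated cells into low and high (top ~1%) gates by anti-HA (expression) and streptavidin (reagent binding) fluorescence. Genes were colony-PCR amplified, MiSeq 2 × 250 sequenced and CDR-length filtered. A clone's polyreactivity label is that of its gate of origin.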

Row | Sequence | polyreactivity (PSR sort gate)
1 | QVQLVESGGGLVQAGGSLRLSCAASGRIFTRYAMGWYRQAPGKERELVAAITGSGGSTYYADSVKGRFTISRDNAKNTVYLQMNSLKPEDTAVYYCNKVTGRNADRYGYWGQGTQVTVSS | high polyreactivity
2 | QVQLQESGGGQVQAGGSLRLSCAASGTISPLPAMGWYRQAPGKEREFVAGIDTGAITNYADSVKGRFTISRDNAKNTVYLQMISLKPEDTAVYYCAVFPAAYDYYERYYTYWGQGTQVYVSS | low polyreactivity
3 | QVQIVESGGGLVQAGCSLRLSCAASGHTFTIKAMGWYRQAPGKERELVAAITFSGGRTYYADSVKGRFTISRDNAKNTVYLQMNSLKPEDTAVYYFAADNPGGSIYDYWGQGTQVNVSS | low polyreactivity
4 | QVQLVESGGGLVQAGGSLRLSCAASGLIFGRYAMGWYRPAPGKERELVAAITNSDGDTYYADSVKGRFTISRDNAKNTVYLQMNSLKPEDTAVYYCNADDALRQTSDYNYWGQGTQVTVSS | low polyreactivity
5 | QVQLVESGGGLVQAGGSLRLSCAASGFTFRWNGMGSYRQAPGKERELVAAISYDGTGTYYADSVKGRFTISRDNAKNTVYLQMNSLKPEDTAVYYCAKTYRDDTSLSGFDSWGQGTQVTVSS | high polyreactivity
6 | QVQLVESGGGLVQAGGSLRLSCAASGYTFVRYAMGWYRQAPGKEREFVASISTSGGSTYYADSVKGRFTISRDNAKNTVYLQMNSLKPEDTAVYYCAAGHVVRRPYLIYDYWGQGTQVTVSS | high polyreactivity
7 | QVELVESGGGLVQAGGSLRLSCDASGITFRSYAMGWYRQAPGKERELVAAIRSGGSTSYADSVKGRFTISRDNAKNTVYLQMNSLKPEDTAVYFCAAGGYVPLTDITFWKFGYWGQGSQVTVSS | low polyreactivity
8 | QVQLVESGGGLVQAGGSLRLSCAASGRIFSQYAMGWYRQAPGKERELVAAISSRGGRTYYADSVKGRFTISRDNAKNTVYLQMNSLKPEDTAVYYCAAVIRSRYSYYEYDYWGQGTQVTVSS | high polyreactivity
9 | QVQLVESGGGLVQAGGSLRLICSASGRTFLYNSMGWYRQAPGKERELVAAIRWSGGTTYYADSVKGRFTISRDNAKYNVYLQMNSLKPEDTAVYYCAARWGPYYGGVRYGYWGQGTQVTVSS | high polyreactivity
10 | QVQLVESGGGLVQAGGSLRLSCAASGRAFKRYAMGWYRQAPGKERELVAAITRSGGSTYYADSVTGRFTISRDKAKNTVYLQMNSLKPEDTAVYYCATRSYNNELEYWGQGTQVTVSS | high polyreactivity
11 | QVQLVESGGGLVQAGGSLRLSCAASGGTFEYNAMGWYRQAPGKERELVAAISKSGGRTYYADSVKGRFTISRDNAKNTVYLQMNSLKPEDTAVYYCAKRYVWGQGTQVTVSS | high polyreactivity
12 | QVQLQESGGGQVQAGGSLRLSCAASGSIYDDTYMGWYRQAPGKERELVATIDSGSTTNYADSVIGRITISRDNAKNTVYLQMNSLKPEDTAVYYCAAADSHIDYFDYWGQGTQVTVSS | low polyreactivity
13 | QVQLVESGGGLVQAGGSLRLSCAASGSIFDINAMGWYRQAPGKERELVAAISTTSGRTYYADSVKGRFTISRDNAKNTVFLQMNSLKPEDTAVYYCNVSKYVSSYRRGLFNYWGQGTQVTVSS | low polyreactivity
14 | QVQLVESGGGLVQAGGSLRLSCAASGRIFGYYAMGWYRQATGKERELVADITESGTSTYYADSVKGRFTISRDNAKNTVYLQMNSLKPEDTAVYYCAAGYWWRYALYVYWGQGTQVTVSS | low polyreactivity
15 | QVQLVESGGGLVHAGGSLRLSCAASGFTCPYYPMGWYRQAPGKERELVDVISRSGGSTYYADSVKGRFTISRDNAKNTVYLQMNSLKPEDTAVYYCAKRYSLTGGKRTGYYWGQGTQVTVSS | high polyreactivity
16 | QVQLVESGGCLVQAGGSLRLSCAASGSTFLGNAMGWYRQAPGKERELVAGITSGGTTNYADSVKGRFTISRDNAKNTVYLQMNSLKPEDTAVYYCNADVWIGQLFDPGYDFDYWGQGTQVTVSS | low polyreactivity
17 | QVQLVESGGGLVQAGGSLRLSCAASGFILERYAMGWYRQAPGKERELVAAISSVGNTNYADSVKGRFTITRDNAKNTVYLQMNSLKPEDTAVYYCAAEGAFPIYDYWGQGTQVTVSS | low polyreactivity
18 | QVQLVESGGGLVQAGGSLRLSCADSGSTFDSYDMGWYRQAPGKERELVAGISYSSDRTYYADSVKGRFTISRDNAKNTVYLQMNSLKPEDTAVYYCAKDHTGTVQYPLDYWGQGTQVTVSS | low polyreactivity
19 | QVQLVESGGGLVQAGGSLRLSCAASGSIFYRYSMGWYRQAPGKEREFVAAITWSGGSTYYADSVKGRFTISRDNAKNTVYLQMNSLKPEDTAVYYCAKDSGSYRVGIYEPFPYGYWGQGTQVTVSS | low polyreactivity
20 | QLQLVESGGGLVQAGGSLRLSCAATGYISNAMGWYRQPPGKERELVAAISRSGGSTYYADSVKGRFTISRDNAKNTVYLQMNSLKPEDTAVYYCAADYTYHDRRLDYWGQGTQVTVSS | low polyreactivity
21 | QVQLVESFGGLVQAGGSLRLICAGSGLTCYVYAMGWSRPAPGKERELVAAISQRGGSTYYADSVKGRFTISRDKAKNTVYLQMNSLKPEDTAVYYCAKYTVQYAFSHYDYWGQGTQVTVSS | high polyreactivity
